The values that follow come from patent US20240108746A1 (Molecular Partners, published 2024).

Where “and” joins values, the source holds several entries; their conditions need not be identical. Equal entries are not always repeated.

For test [1], the target named is T1, Biotinylated CD3-specific binding domain SEQ ID NO: 14 (biotinylated (site not stated)).
T1 construct: Ligand on the neutravidin (NLC) SPR chip
T1 chain: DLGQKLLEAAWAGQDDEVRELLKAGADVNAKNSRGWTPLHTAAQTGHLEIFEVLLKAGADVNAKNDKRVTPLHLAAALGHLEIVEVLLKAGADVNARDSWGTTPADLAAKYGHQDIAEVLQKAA
Kind of test: calculated from SPR koff (ln2/koff). On the procedure: (§1) Further SPR data were generated for Binders #1 to #9 (as listed in Example 1 above), binding to biotinylated CD3-specific binding domains having SEQ ID NOs: 13 and 14, respectively, on the chip. […] The blocking half-life (T_{1/2}) was then calculated.

The target of test [2] is T2, Biotinylated CD3-specific binding domain SEQ ID NO: 13 (biotinylated (site not stated)).
T2 construct: Ligand on the neutravidin (NLC) SPR chip; The same domain is the CD3-specific domain of TCE #1
T2 chain: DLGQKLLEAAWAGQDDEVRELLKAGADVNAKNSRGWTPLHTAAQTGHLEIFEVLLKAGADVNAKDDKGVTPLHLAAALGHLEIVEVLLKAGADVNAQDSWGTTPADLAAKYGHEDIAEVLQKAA
As to the kind of experiment: calculated from SPR koff (ln2/koff). The protocol: as §1

For test [3], the target named is T1, Biotinylated CD3-specific binding …. Kind of test: SPR (ProteOn XPR36), 33 C, multi-trace; biotinylated ligand on chip, binder as analyte. The protocol:
as §1

Test [4] deals with T2, Biotinylated CD3-specific binding …. The test is described as above. The protocol:
as §1

Test [5] concerns the target T3, TCE #1.
T3 chain: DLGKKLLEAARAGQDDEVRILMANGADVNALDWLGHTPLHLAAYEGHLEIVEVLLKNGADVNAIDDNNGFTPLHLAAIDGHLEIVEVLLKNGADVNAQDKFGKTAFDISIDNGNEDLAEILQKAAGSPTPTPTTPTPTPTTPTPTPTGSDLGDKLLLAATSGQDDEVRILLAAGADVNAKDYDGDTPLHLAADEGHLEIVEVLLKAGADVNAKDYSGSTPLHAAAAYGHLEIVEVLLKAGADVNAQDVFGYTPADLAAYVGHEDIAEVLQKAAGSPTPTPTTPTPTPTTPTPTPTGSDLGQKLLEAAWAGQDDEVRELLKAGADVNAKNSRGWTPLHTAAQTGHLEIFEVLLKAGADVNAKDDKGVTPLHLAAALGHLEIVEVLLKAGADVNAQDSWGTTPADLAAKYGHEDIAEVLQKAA
As to the kind of experiment: cell-based or functional assay.

The target of test [6] is T3, TCE #1. Kind of test: cell-based or functional assay.
Test [7] has as its target T3, TCE #1. As to the kind of experiment: cell-based or functional assay.
A further test has as its target T4, TCE #2.
T4 construct: also called α-HSA×α-CD123×α-CD33×α-CD3 T-cell engager; TCE (with a half-life extending moiety)
T4 chain: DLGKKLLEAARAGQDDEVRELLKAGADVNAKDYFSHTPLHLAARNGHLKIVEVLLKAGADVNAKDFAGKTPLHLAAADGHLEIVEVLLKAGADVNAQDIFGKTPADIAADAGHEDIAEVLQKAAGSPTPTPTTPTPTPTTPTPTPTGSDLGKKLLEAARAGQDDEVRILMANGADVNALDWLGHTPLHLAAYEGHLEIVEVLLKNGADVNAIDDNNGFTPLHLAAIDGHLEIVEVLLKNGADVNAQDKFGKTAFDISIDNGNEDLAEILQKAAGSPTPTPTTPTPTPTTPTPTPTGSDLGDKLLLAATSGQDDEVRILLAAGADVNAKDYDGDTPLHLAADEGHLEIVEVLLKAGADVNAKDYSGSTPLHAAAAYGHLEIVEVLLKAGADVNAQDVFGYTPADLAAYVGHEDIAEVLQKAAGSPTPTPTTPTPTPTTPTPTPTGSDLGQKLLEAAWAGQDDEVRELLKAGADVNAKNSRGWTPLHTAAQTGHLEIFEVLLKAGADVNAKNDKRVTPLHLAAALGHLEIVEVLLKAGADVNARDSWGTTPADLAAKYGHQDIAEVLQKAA
Kind of test: not stated (affinity to the CD3 effector moiety of TCE #2); Binder #4, double-digit pM.

Test [8] concerns the target T3, TCE #1. As to the kind of experiment: not stated in the sentence (affinity quoted for the Incucyte experiment with TCE #1).
The target of test [9] is T5, CD3-specific binding domain (SEQ ID NO:11).
T5 construct: Immobilized on beads in the sink chamber of the 'complex' Incucyte assay; also the first selection target; also called immobilized scavenger protein; bead-immobilized target protein
T5 chain: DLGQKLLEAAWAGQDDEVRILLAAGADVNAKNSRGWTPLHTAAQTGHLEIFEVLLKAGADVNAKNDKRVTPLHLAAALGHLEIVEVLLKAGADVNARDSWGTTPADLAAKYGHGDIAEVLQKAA
Kind of test: bead-immobilized scavenger protein in the sink chamber of the complex Incucyte assay. On the procedure: In the experiment described here, a TCE (TCE #1) was used as drug molecule.
As in Example 4, a tumor cell line expressing the TAA was used as target cell line which has been transduced with Incucyte Nuclight Red Lentivirus for detection by the Incucyte® camera. PanT-cells were added, together with different prodrug complexes. […] Additionally, unbound TCE #1 (10 pM) as well as background (i.e. no prodrug complex or TCE, but with beads) served as controls. Tumor cell growth was measured for a period of 5 days by determining the area of red objects detected by the Incucyte® camera.

B1: Binder #2 (designed binder)
chain: MRGSHHHHHHGSDLGKKLLQAARAGQLDEVRELLKAGADVNAKDFKGLTPLHLAAAHGHLEIVEVLLKAGADVNAKDVYGWTPLHWAAASGHLEIVEVLLKAGADVNAKDWLGITPLHLAASHGHLEIVEVLLKAGADVNAQDKSGKTPADLAARAGHQDIAEVLQKAA
Regarding B1, the “Blocking T1/2” value in [1] was 9.6 h. Moreover, the “Blocking T1/2” value in test [2] was 4.8 h. In test [3], this molecule returned a dissociation constant Kd of 0.032 nM, a koff of 2e-05 s⁻¹ and an association rate constant (kon) of 630000 M⁻¹ s⁻¹. For the same molecule, in test [4], the Kd worked out at 0.028 nM, the koff was determined as 4e-05 s⁻¹ and the on-rate (kon) amounted to 1.43e+06 M⁻¹ s⁻¹.

B2: Binder #3 (designed binder)
chain: MRGSHHHHHHGSDLGKKLLQAARAGQLDEVRELLKAGADVNAKDFKGLTPLHLAAAHGHLEIVEVLLKAGADVNAKDVYGWTPLHWAAAKGHLEIVEVLLKAGADVNAKDWLGITPLHLAASHGHLEIVEVLLKAGADVNAQDKSGKTPADLAARAGHQDIAEVLQKAA
With B2, the “Blocking T1/2” value in test [1] is 10.1 h. The “Blocking T1/2” value in test [2] is 6.9 h. In addition, in [3], the Kd is 0.029 nM, the koff was determined as 1.9e-05 s⁻¹ and the kon was 650000 M⁻¹ s⁻¹. For the same molecule, in [4], the dissociation constant (Kd) amounted to 0.016 nM, the off-rate (koff) worked out at 2.8e-05 s⁻¹ and the association rate constant (kon) amounted to 1.7e+06 M⁻¹ s⁻¹.

B3: Binder #4 (designed binder)
chain: MRGSHHHHHHGSDLGKKLLQAARAGQLDEVRELLKAGADVNAKDFKGLTPLHLAAEHGHLEIVEVLLKAGADVNAKDVYGWTPLHWAAAKGHLEIVEVLLKAGADVNAKDWLGITPLHLAASHGHLEIVEVLLKAGADVNAQDKSGKTPADLAARAGHQDIAEVLQKAA
As for B3, the “loss of inhibition of TCE activity (simple Incucyte assay)” value (“loss of inhibition of TCE activity” below) with TCE #1 [5] was 4 fold molar excess of binder over TCE. The “IC50, inhibition of TCE #1 (10 pM) mediated T-cell activation (CD25+ T-cells, % of CD8+, 48 h)” value in the test with TCE #1 [6] turned out to be 33.8 pM. Besides, in the test with TCE #1 [7], the “IC50, inhibition of TCE #1 (10 pM) mediated tumor cell killing (LDH release, OD492nm-620nm, 48 h)” value stood at 26.3 pM. Further, the “Blocking T1/2” value in test [1] was 16 h; in test [2], 10.1 h. Further, the Kd is about 0.02 nM in the test with TCE #2, 0.019 nM in test [3] and 0.011 nM in test [4]. Moreover, the koff in test [3] was 1.2e-05 s⁻¹; in [4], 1.9e-05 s⁻¹. Besides, the kon in [3] is 630000 M⁻¹ s⁻¹; in test [4], 1.74e+06 M⁻¹ s⁻¹.

B4: Binder #5 (designed binder)
chain: MRGSHHHHHHGSDLGKKLLQAARAGQLDEVRELLKAGADVNAKDHYGWTPLHIAAQIGHLEIVEVLLKAGADVNAKDWIGYTPLHLAASHGHLEIVEVLLKAGADVNAKDVSGKTPLHVAAAHGHLEIVEVLLKAGADVNAQDKSGKTPADLAARAGHQDIAEVLQKAA
Consider B4, for which the “blocking of T-cell mediated tumor cell growth inhibition (simple Incucyte assay)” value with TCE #1 [5] was 4 fold molar excess of binder over TCE. In addition, the “inhibition of TCE activity (simple Incucyte assay)” value with TCE #1 [5] is 4 fold molar excess of binder over TCE. In the test with TCE #1 [5], the “loss of inhibition of TCE activity” value is 1 molar ratio binder:TCE. The “IC50, inhibition of TCE #1 (10 pM) mediated T-cell activation (CD25+ T-cells, % of CD8+, 48 h)” value with TCE #1 [6] worked out at 18.4 pM. In the test with TCE #1 [7], the “IC50, inhibition of TCE #1 (10 pM) mediated tumor cell killing (LDH release, OD492nm-620nm, 48 h)” value was found to be 16 pM. In addition, the “Blocking T1/2” value in [1] and in [2] was over 3.9 h each time. In addition, the dissociation constant Kd with TCE #1 [8] was at most 0.006 nM; in [3], under 0.02 nM; in test [4], under 0.02 nM. Moreover, the off-rate constant (koff) in [3] and in [4] was under 5e-05 s⁻¹ in each case.

B5: Binder #6 (designed binder)
chain: MRGSHHHHHHGSDLGKKLLQAARAGQLDEVRELLKAGADVNAKDQYGWTPLHLAAYSGHLEIVEVLLKAGADVNAKDWVGWTPLHLAASHGHLEIVEVLLKAGADVNAKDEAGRTPLHIAAKQGHLEIVEVLLKAGADVNAQDKSGKTPADLAARAGHQDIAEVLQKAA
Take B5: the “Blocking T1/2” value in [1] and in test [2] was over 3.9 h each time. Moreover, the Kd in test [3] and in test [4] was under 0.02 nM in each case. Further, the koff in test [3] and in test [4] was under 5e-05 s⁻¹ in each case.

B6: Binder #7 (designed binder)
chain: MRGSHHHHHHGSDLGKKLLQAARAGQLDEVRELLKAGADVNAKDHYGWTPLHLAAAEGHLEIVEVLLKAGADVNAKDWIGYTPLHIAASHGHLEIVEVLLKAGADVNAKDSSGKTPLHIAAQHGHLEIVEVLLKAGADVNAQDKSGKTPADLAARAGHQDIAEVLQKAA
For the molecule B6, the “Blocking T1/2” value in test [1] and in test [2] was over 3.9 h each time. Further, the equilibrium dissociation constant (Kd) in test [3] and in test [4] was under 0.02 nM throughout. In addition, the koff in [3] and in test [4] was under 5e-05 s⁻¹ throughout.

B7: Binder #8 (designed binder)
chain: MRGSHHHHHHGSDLGKKLLQAARAGQLDEVRELLKAGADVNAKDHYGWTPLHIAAQRGHLEIVEVLLKAGADVNAKDWLGWTPLHVAASHGHLEIVEVLLKAGADVNAKDLSGRTPLHIAARQGHLEIVEVLLKAGADVNAQDKSGKTPADLAARAGHQDIAEVLQKAA
Consider B7, for which the “Blocking T1/2” value in [1] and in test [2] was over 3.9 h throughout. The Kd in [3] and in test [4] was under 0.02 nM each time. Also, the koff in test [3] and in test [4] was under 5e-05 s⁻¹ in each case.

B8: Binder #9 (designed binder)
chain: MRGSHHHHHHGSDLGKKLLQAARAGQLDEVRELLKAGADVNAKDHYGWTPLHLAASEGHLEIVEVLLKAGADVNAKDWIGWTPLHLAASFGHLEIVEVLLKAGADVNAKDVSGKTPLHIAARQGHLEIVEVLLKAGADVNAQDKSGKTPADLAARAGHQDIAEVLQLQKAA
For the molecule B8, in the test with TCE #1 [5], the “inhibition of TCE activity (complex Incucyte assay, functional sink chamber with beads coated with CD3-specific binding domain)” value was 12.3 molar ratio binder:TCE; the “inhibition of TCE activity (complex Incucyte assay, sink chamber with non-coated beads)” value was 1.37 molar ratio binder:TCE; the “inhibition of TCE activity (simple Incucyte assay)” value was 1 molar ratio binder:TCE and 4 fold molar excess of binder over TCE; the “loss of inhibition of TCE activity” value is 1 molar ratio binder:TCE. In addition, in test [9], the binding result is listed as “binds”. Also, the “IC50, inhibition of TCE #1 (10 pM) mediated T-cell activation (CD25+ T-cells, % of CD8+, 48 h)” value with TCE #1 [6] is 83.8 pM. The “IC50, inhibition of TCE #1 (10 pM) mediated tumor cell killing (LDH release, OD492nm-620nm, 48 h)” value in the test with TCE #1 [7] worked out at 51.8 pM. The “Blocking T1/2” value in [1] is over 3.9 h. The “Blocking T1/2” value in test [2] was over 3.9 h. Besides, in test [3], the equilibrium dissociation constant (Kd) was under 0.02 nM and the dissociation rate constant (koff) was under 5e-05 s⁻¹. In test [4], this molecule showed a dissociation constant (Kd) of under 0.02 nM and a dissociation rate constant (koff) of under 5e-05 s⁻¹.

Broadly, the Kd is the concentration at which binding is half-saturated. Lower therefore signals higher affinity. By koff is commonly meant a measure of how fast the partners let go of each other. A higher koff goes with fast dissociation. A word on the kon: it is the rate constant with which the complex forms. Read a low kon as slow association.
